We go through seven substances from patent publication US20220226442A1.

This assay has as its target IL-2 receptors on the cell surface of human PBMC populations (Tregs, CD25^high T helper cells, NK cells, cytotoxic T cells). The assay can be described thus: cell-based or functional assay.

Turning to “IL-2-Fc fusion protein F42K/V69A/Q74P, (G4S)4 linker, IgG1 Fc N297G”, the Ratio (CD25^high T helper EC50 / Treg EC50) turned out to be 15.9. On the same count and under the same terms, next, “IL-2-Fc fusion protein F42Q/V69A/Q74P, (G4S)4 linker, IgG1 Fc N297G”: 25.9. For “IL-2-Fc fusion protein K35E/V69A/Q74P, (G4S)4 linker, IgG1 Fc N297G”, the Ratio (CD25^high T helper EC50 / Treg EC50) was 300. The same measure, in the same setting: next, “IL-2-Fc fusion protein R38E/V69A/Q74P, (G4S)4 linker, IgG1 Fc N297G”: 9. As for “IL-2-Fc fusion protein R38N/V69A/Q74P, (G4S)4 linker, IgG1 Fc N297G”, the Ratio (CD25^high T helper EC50 / Treg EC50) came out at 2820. Turning to “IL-2-Fc fusion protein R38Q/V69A/Q74P, (G4S)4 linker, IgG1 Fc N297G”, the Ratio (CD25^high T helper EC50 / Treg EC50) turned out to be 28.4. The substance “irrelevant (non-binding) antibody with IL-2 N88D fused to its C-terminus” had a pSTAT5 EC50, Treg of 0.37 nM and a pSTAT5 Max. Signal, Treg (relative to V69A/Q74P IL-2-Fc) of 0.5.
